{"source": "paper PMC3561454", "molecular_target": "Csk (UniProt P41240)", "test": "p140Cap IP, Csk western blot", "details": "reference: wild type, sites Y264,Y396"}
{"substance": "p140Cap (from UniProt Q9C0H9) Y264F/Y396F double mutant", "values": [{"measurement": "binding against the reference", "value": "lost"}]}
{"substance": "p140Cap (from UniProt Q9C0H9) Y264F/Y396F double mutant, FBS time course", "values": [{"measurement": "binding against the reference", "setting": "FBS time course", "value": "lost"}]}
